From patent publication US20200299413A1 (BIOMUNEX PHARMACEUTICALS, published 2020)

Target: CD38 on RPMI-8226 multiple myeloma cells (UniProt P28907 1-300, limits assumed)
Assay: cell-based or functional assay

ADCC (51Chromium release) EC50 on RPMI-8226 cells, non-pre-activated MNC effectors: 300 pM
B1: parental anti-CD38 mAb (daratumumab) (antibody, V domains shown)
VH: EVQLLESGGGLVQPGGSLRLSCAVSGFTFNSFAMSWVRQAPGKGLEWVSAISGSGGGTYYADSVKGRFTISRDNSKNTLYLQMNSLRAEDTAVYFCAKDKILWFGEPVFDYWGQGTLVTVSS
VL: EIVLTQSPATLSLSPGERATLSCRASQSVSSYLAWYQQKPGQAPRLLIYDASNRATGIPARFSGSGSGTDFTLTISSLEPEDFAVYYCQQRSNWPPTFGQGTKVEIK
